Measured values as given in patent US20250163130A1, “LIGAND GATED ION CHANNELS AND METHODS OF USE” (Trames Bio, Inc., priority 2022, published 2025).

Legend:
CODA1237 = molecular target: T1, CODA1237 (Homo sapiens, UniProt P36544, F159M/H163T/I152M/R155K/V154L/W156N/Y151P); test: Anion reporter (YFP quench) plate assay, ligand response of cells expressing CODA1237 compared with CODA71; assay type: cell-based; conditions: FIG. 1, various ligand doses
T1 construct: expressed in transfected cells; host or cells: Lenti-X 293T (LX293T, Clontech) stably expressing mutant YFP (H148Q/I152L) reporter

[1] = tested on: rat model of neuropathic pain; test: Spared nerve injury (SNI) rat model of neuropathic pain, mechanical withdrawal threshold; assay type: in vivo; conditions: SNI rats injected with AAV.hSYN encoding engineered receptor; repeat IP injection on the third day
Description: The engineered receptors disclosed herein are assessed for their ability to provide analgesia in a rat model of neuropathic pain following administration of a small molecule ligand. AAV expression cassettes containing a human synapsin-1 (hSYN) promoter linked to polynucleotides encoding either a wild type α7-nAChR, or any one of the engineered chimeric receptors disclosed herein are constructed using standard molecular biology techniques.
Behavioral experiments and pain models: To produce mechanical hypersensitivity in a model that mimics a neuropathic pain condition, the spared nerve injury (SNI) model (a validated model of mechanical allodynia) is used (Shields et al., 2003, The Journal of Pain, 4, 465-470). This model is produced by the sectioning of the common peroneal and the sural nerves and isolating the tibial branch. Mechanical withdrawal threshold is assessed by placing rats on an elevated wire-mesh grid and stimulating the plantar surface of the hind paw with von Frey filaments.
Effects of administration: This SNI model is produced by the sectioning of the common peroneal and the sural nerves and isolating the tibial branch of the rat. […] The duration that the rat spends on the rotarod is recorded, with a cut-off at 300 sec. […]

HEK cells [2] = test: Peak current measurement on IonFlux in HEK cells; assay type: cell-based; conditions: held at −60 mV
Description: HEK 293 cells were routinely subcultured in DMEM with 10% fetal bovine serum (ThermoFisher Scientific). Cells were plated in 15 cm dishes 24 hours prior to transfection with Fugene 6 (Promega, E2691) and plasmid DNA (total of 20 μg DNA). 24 hours post transfection, cells were lifted with Accutase (Sigma, A6964) then resuspended in serum free media (CHO—S-SFM II, ThermoFisher Scientific 12052 with 25 mM HEPES, ThermoFisher Scientific, 15630080) to rest for 30-90 min before being loaded onto IonFlux (Fluxion Biosciences) for experiments. Recordings were made in extracellular solution (ECS) containing (in mM): 140 sodium chloride (S7653), 4 potassium chloride (P9333), 1 magnesium chloride (M2670), 2 calcium chloride (C3881), 10 HEPES (54457), and 10 D-(+)-glucose (G7528) (pH=7.3 with sodium hydroxide, osmolarity=305-315 mOsm). Intracellular solution (ICS) contains (in mM): 140 cesium chloride (289329), 5 potassium fluoride (60238), 2 Calcium chloride (P9333), 2 magnesium chloride (M2670), 10 HEPES (54457), and 10 EGTA (3777) (pH=7.2 with cesium hydroxide, osmolarity=290-295 mOsm).
Drug-induced currents were recorded in ensemble mode (20 cells are patched per recording channel). Cells were held at −60 mV and current across the membrane was recorded at 1 kHz sampling rate. Drugs tested include acetycholine chloride (A6625) and other synthetic compounds. […]

HEK cells [3] = test: Peak current measurement by manual patch clamp in HEK cells; assay type: cell-based; conditions: held at −60 mV
Description: Cell culture: HEK 293 cells were routinely subcultured in DMEM with 10% fetal bovine serum (ThermoFisher Scientific). Cells were plated in six-well dishes 24 hours prior to transfection with Fugene 6 (Promega, E2691) and plasmid DNA (total of 1 μg DNA). 24 hours post transfection, cells were replated onto 10 mm PDL and collagen coated coverslips, before being used for patch clamp experiments 24-48 hours later. For dorsal root ganglion neuron experiments, adult rat lumbar ganglia were harvested and dissociated according to standard protocols, cultured on glass coverslips coated with poly-L-lysine and mouse laminin, transduced on DIV1 with ires-GFP-containing lentiviral or AAV6 vectors, and processed for immunocytochemistry on DIV7. For hippocampal neuron experiments, hippocampi were harvested from embryonic day 18 rat pups or postnatal day 0 mouse pups and dissociated according to standard protocols. […]
Whole-cell patch clamp recording protocol: Cells plated on coverslips were visualized at 10× and 40× on an inverted fluorescence microscope (Olympus). […] Traces were either analyzed in Clampfit (Molecular Devices) or using custom Python code. […]
Dose-response experiments: Drug-induced currents were recorded in voltage clamp mode. […]

HEK cells [4] = test: TC-5619 / acetylcholine dose response and peak current of engineered receptors in HEK cells (FIGS. 5C-5F); assay type: cell-based; conditions: for Response to TC-5619 (dose response), compared with CODA71: FIGS. 5C-5E

T1 sequence (P36544 with tags, fused parts or gaps Y151P/I152M/V154L/R155K/W156N/F159M/H163T): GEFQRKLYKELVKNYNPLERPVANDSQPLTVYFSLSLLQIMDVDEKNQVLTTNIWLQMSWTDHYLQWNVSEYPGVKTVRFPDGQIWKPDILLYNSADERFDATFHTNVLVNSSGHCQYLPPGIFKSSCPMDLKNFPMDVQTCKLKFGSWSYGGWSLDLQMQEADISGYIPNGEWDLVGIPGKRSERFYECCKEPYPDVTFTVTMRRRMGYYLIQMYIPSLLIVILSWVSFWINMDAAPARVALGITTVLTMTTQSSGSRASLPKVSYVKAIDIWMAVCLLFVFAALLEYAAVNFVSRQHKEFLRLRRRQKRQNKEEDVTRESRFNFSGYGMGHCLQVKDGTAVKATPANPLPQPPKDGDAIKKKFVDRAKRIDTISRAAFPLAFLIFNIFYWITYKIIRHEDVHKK

Molecule	Responsiveness (percent quench of YFP fluorescence) of cells expressing CODA1237 compared with cells expressing CODA71 (CODA1237)	Mechanical withdrawal thresholds (up-down method) after IP injection of ligand [1]	Peak Current on IonFlux in HEK Cells (HEK cells [2])	Peak Current on Manual Patch Clamp in HEK cells (HEK cells [3])	Peak current when activated by TC-5619, compared with CODA1055 (HEK cells [4]; FIG. 5F)	Response to TC-5619 (dose response), compared with CODA71 (HEK cells [4])	Response to acetylcholine (dose response), compared with CODA71 (HEK cells [4]; FIGS. 5C-5D)
c1cnc2c(c1)C[C@@]1(CN3CCC1CC3)O2 [AZD-0328]	more responsive	recovery to non-injury baseline thresholds	–	–	–	–	–
CODA1316: α7-nAChR(Gly-cys) LBD: GlyRα2 IPD, SEQ ID NO: 65 comprising R101W, Y115E, Y210W, T225I mutations (protein, CHRNA7 (Cys-loop)/GLRA2) MRCSPGGVWLALAASLLHVSLQGEFQRKLYKELVKNYNPLERPVANDSQPLTVYFSLSLLQIMDVDEKNQVLTTNIWLQMSWTDHYLQWNVSEYPGVKTVWFPDGQIWKPDILLENSADERFDATFHTNVLVNSSGHCQYLPPGIFKSSCPMDLKNFPMDVQTCKLKFGSWSYGGWSLDLQMQEADISGYIPNGEWDLVGIPGKRSERFWECCKEPYPDVTFTVIMRRRMGYYLIQMYIPSLLIVILSWVSFWINMDAAPARVALGITTVLTMTTQSSGSRASLPKVSYVKAIDIWMAVCLLFVFAALLEYAAVNFVSRQHKEFLRLRRRQKRQNKEEDVTRESRFNFSGYGMGHCLQVKDGTAVKATPANPLPQPPKDGDAIKKKFVDRAKRIDTISRAAFPLAFLIFNIFYWITYKIIRHEDVHKK	–	–	−5520.5 picoamps (pA)	−2779 picoamps (pA)	increased peak current	increased response	–
CODA1055: α7-nAChR(Gly-cys) LBD: GlyRα1 IPD, SEQ ID NO: 33 comprising R101W, Y115E, Y210W mutations (protein, synthetic sequence of chimeric LGIC) MRCSPGGVWLALAASLLHVSLQGEFQRKLYKELVKNYNPLERPVANDSQPLTVYFSLSLLQIMDVDEKNQVLTTNIWLQMSWTDHYLQWNVSEYPGVKTVWFPDGQIWKPDILLENSADERFDATFHTNVLVNSSGHCQYLPPGIFKSSCPMDLKNFPMDVQTCKLKFGSWSYGGWSLDLQMQEADISGYIPNGEWDLVGIPGKRSERFWECCKEPYPDVTFTVTMRRRMGYYLIQMYIPSLLIVILSWISFWINMDAAPARVGLGITTVLTMTTQSSGSRASLPKVSYVKAIDIWMAVCLLFVFSALLEYAAVNFVSRQHKELLRFRRKRRHHKSPMLNLFQEDEAGEGRFNFSAYGMGPACLQAKDGISVKGANNSNTTNPPPAPSKSPEEMRKLFIQRAKKIDKISRIGFPMAFLIFNMFYWIIYKIVRREDVHNQ	–	–	−5074.3 picoamps (pA)	−2176.6 picoamps (pA)	–	increased response	reduced response
